Assays:
LNCaP cells = assay: Cell proliferation assay (BrdU ELISA), R1881-induced proliferation; type: cell-based, human; conditions: LNCaP cells infected with lentivirus, 1×10^−9 M R1881, versus miRNA control (FIG. 4e)
Method: Experiments were performed as described^2. pLenti6-miRNA-control and pLenti6-miRNA-PKCβI were used to produce recombinant lentiviruses to infect LNCaP cells as described^15. The infected cells were cultured for 72 hours in medium containing 10% double-stripped FCS. 1×10^4 cells were plated in a 96-well plate in the presence or absence of 1×10^−9 M R1881. The cell proliferation Elisa BrdU Colorimetric Assay (Roche) was performed according to the manufacturer's instructions. […] The experiments were performed in hexaplicate.

KLK2 and FKBP5 genes = assay: Quantitative RT-PCR of androgen-regulated genes in LNCaP cells; type: cell-based, human; conditions: miRNA-mediated knockdown (FIG. 3j)
Method: Quantitative RT-PCR and statistical analysis were performed as described. The primers for KLK2 and FKBP5 were described previously^6, 11.

B1: 5′-TGCTGTTACGTAGGGATCTGACAGGCGTTTTGGCCACTGACTGACGCCTGTCATCCCTACGTAA-3′ (nucleic acid)
DNA 1: TGCTGTTACGTAGGGATCTGACAGGCGTTTTGGCCACTGACTGACGCCTGTCATCCCTACGTAA
DNA 2: CCTGTTACGTAGGGATGACAGGCGTCAGTCAGTGGCCAAAACGCCTGTCAGATCCCTACGTAAC
modifications: expressed or natural sequence
- R1881-induced cell proliferation (LNCaP cells): severely reduces
- expression of the androgen-regulated KLK2 and FKBP5 genes (KLK2 and FKBP5 genes): reduces expression

From patent US20120329854A1, “Methods and Compounds for the Diagnosis and Treatment for Cancer” (UNIVERSITÄTSKLINIKUM FREIBURG, priority 2009, published 2012)
